Measured values reported in publication PMC1934993 (Nucleic Acids Research, 2007).

Biological target: the molecule itself
Test: crystal structure

B1: C-terminally truncated Saccharomyces cerevisiae tyrosyl-tRNA synthetase (SceTyrRS, residues 1-364) (enzyme, UniProt P36421 1-364, looked up)
chain: MSSAATVDPNEAFGLITKNLQEVLNPQIIKDVLEVQKRHLKLYWGTAPTGRPHCGYFVPMTKLADFLKAGCEVTVLLADLHAFLDNMKAPLEVVNYRAKYYELTIKAILRSINVPIEKLKFVVGSSYQLTPDYTMDIFRLSNIVSQNDAKRAGADVVKQVANPLLSGLIYPLMQALDEQFLDVDCQFGGVDQRKIFVLAEENLPSLGYKKRAHLMNPMVPGLAQGGKMSASDPNSKIDLLEEPKQVKKKINSAFCSPGNVEENGLLSFVQYVIAPIQELKFGTNHFEFFIDRPEKFGGPITYKSFEEMKLAFKEEKLSPPDLKIGVADAINELLEPIRQEFANNKEFQEASEKGYPVATPQKSK
With B1 the “stoichiometry N” value was 2.
